Results published in patent US20160272683A1 (Novo Nordisk, published 2016).
Numbered stars: 1 amine (or outer) side, 2 acyl side, 3 side chain; on linkers, the order of the positions; unused ones are H or OH. Side chains are listed from the residue outwards. Ends that are not written are not given here. * marks the point of attachment. C20 diacid = O=C(O)CCCCCCCCCCCCCCCCCCC(=O)*; C18 diacid = O=C(O)CCCCCCCCCCCCCCCCC(=O)*; γGlu = O=C(O)[C@H](CCC(=O)[*:2])N[*:1]; AEEA = NCCOCCOCC(=O)O

B1: [N-terminal(C20 diacid-gGlu-2xOEG), des1, 4G, 9V, 15Q, 21Q, 23Y, 30S, 31G, 32T, 33Y]mimylin (peptide)
peptide: {C20 diacid-γGlu-AEEA-AEEA}-ASGLSTAVLGRLSQELHELQTYPRTETGSGTY-NH2
SMILES: CC(C)C[C@H](NC(=O)CNC(=O)[C@H](CO)NC(=O)[C@H](C)NC(=O)COCCOCCNC(=O)COCCOCCNC(=O)CC[C@H](NC(=O)CCCCCCCCCCCCCCCCCCC(=O)O)C(=O)O)C(=O)N[C@@H](CO)C(=O)N[C@H](C(=O)N[C@@H](C)C(=O)N[C@H](C(=O)N[C@@H](CC(C)C)C(=O)NCC(=O)N[C@@H](CCCNC(=N)N)C(=O)N[C@@H](CC(C)C)C(=O)N[C@@H](CO)C(=O)N[C@@H](CCC(N)=O)C(=O)N[C@@H](CCC(=O)O)C(=O)N[C@@H](CC(C)C)C(=O)N[C@@H](Cc1c[nH]cn1)C(=O)N[C@@H](CCC(=O)O)C(=O)N[C@@H](CC(C)C)C(=O)N[C@@H](CCC(N)=O)C(=O)N[C@H](C(=O)N[C@@H](Cc1ccc(O)cc1)C(=O)N1CCC[C@H]1C(=O)N[C@@H](CCCNC(=N)N)C(=O)N[C@H](C(=O)N[C@@H](CCC(=O)O)C(=O)N[C@H](C(=O)NCC(=O)N[C@@H](CO)C(=O)NCC(=O)N[C@H](C(=O)N[C@@H](Cc1ccc(O)cc1)C(N)=O)[C@@H](C)O)[C@@H](C)O)[C@@H](C)O)[C@@H](C)O)C(C)C)[C@@H](C)O
notes: mimylin derivative; des1 = residue 1 deleted; also called Ex. #120; 120
B2: [N-terminal(C20 diacid-gGlu), des1, 4G, 8L, 9V, 15Q, 21Q, 23Y, 30S, 31Q, 32T, 33Y]mimylin (peptide)
peptide: {C20 diacid-γGlu}-ASGLSTLVLGRLSQELHELQTYPRTETGSQTY-NH2
SMILES: CC(C)C[C@H](NC(=O)CNC(=O)[C@H](CO)NC(=O)[C@H](C)NC(=O)CC[C@H](NC(=O)CCCCCCCCCCCCCCCCCCC(=O)O)C(=O)O)C(=O)N[C@@H](CO)C(=O)N[C@H](C(=O)N[C@@H](CC(C)C)C(=O)N[C@H](C(=O)N[C@@H](CC(C)C)C(=O)NCC(=O)N[C@@H](CCCNC(=N)N)C(=O)N[C@@H](CC(C)C)C(=O)N[C@@H](CO)C(=O)N[C@@H](CCC(N)=O)C(=O)N[C@@H](CCC(=O)O)C(=O)N[C@@H](CC(C)C)C(=O)N[C@@H](Cc1c[nH]cn1)C(=O)N[C@@H](CCC(=O)O)C(=O)N[C@@H](CC(C)C)C(=O)N[C@@H](CCC(N)=O)C(=O)N[C@H](C(=O)N[C@@H](Cc1ccc(O)cc1)C(=O)N1CCC[C@H]1C(=O)N[C@@H](CCCNC(=N)N)C(=O)N[C@H](C(=O)N[C@@H](CCC(=O)O)C(=O)N[C@H](C(=O)NCC(=O)N[C@@H](CO)C(=O)N[C@@H](CCC(N)=O)C(=O)N[C@H](C(=O)N[C@@H](Cc1ccc(O)cc1)C(N)=O)[C@@H](C)O)[C@@H](C)O)[C@@H](C)O)[C@@H](C)O)C(C)C)[C@@H](C)O
notes: mimylin derivative; des1 = residue 1 deleted
B3: [N-terminal(C18 diacid-gGlu), des1, 4G, 15Q, 21Q, 23Y, 30S, 31G, 32T, 33Y]mimylin (peptide)
peptide: {C18 diacid-γGlu}-ASGLSTAALGRLSQELHELQTYPRTETGSGTY-NH2
SMILES: CC(C)C[C@H](NC(=O)CNC(=O)[C@H](CO)NC(=O)[C@H](C)NC(=O)CC[C@H](NC(=O)CCCCCCCCCCCCCCCCC(=O)O)C(=O)O)C(=O)N[C@@H](CO)C(=O)N[C@H](C(=O)N[C@@H](C)C(=O)N[C@@H](C)C(=O)N[C@@H](CC(C)C)C(=O)NCC(=O)N[C@@H](CCCNC(=N)N)C(=O)N[C@@H](CC(C)C)C(=O)N[C@@H](CO)C(=O)N[C@@H](CCC(N)=O)C(=O)N[C@@H](CCC(=O)O)C(=O)N[C@@H](CC(C)C)C(=O)N[C@@H](Cc1c[nH]cn1)C(=O)N[C@@H](CCC(=O)O)C(=O)N[C@@H](CC(C)C)C(=O)N[C@@H](CCC(N)=O)C(=O)N[C@H](C(=O)N[C@@H](Cc1ccc(O)cc1)C(=O)N1CCC[C@H]1C(=O)N[C@@H](CCCNC(=N)N)C(=O)N[C@H](C(=O)N[C@@H](CCC(=O)O)C(=O)N[C@H](C(=O)NCC(=O)N[C@@H](CO)C(=O)NCC(=O)N[C@H](C(=O)N[C@@H](Cc1ccc(O)cc1)C(N)=O)[C@@H](C)O)[C@@H](C)O)[C@@H](C)O)[C@@H](C)O)[C@@H](C)O
notes: mimylin derivative; des1 = residue 1 deleted; also called Ex. #110; 110
B4: [des1, 16K(C20 diacid-gGlu), 30S, 31G]mimylin (peptide)
peptide: ASELSTAALGRLSAK([γGlu-C20 diacid])LHELATLPRTETGSGSP-NH2
modifications: N-terminus assumed
SMILES: CC(C)C[C@H](NC(=O)[C@H](C)NC(=O)[C@H](C)NC(=O)[C@@H](NC(=O)[C@H](CO)NC(=O)[C@H](CC(C)C)NC(=O)[C@H](CCC(=O)O)NC(=O)[C@H](CO)NC(=O)[C@H](C)N)[C@@H](C)O)C(=O)NCC(=O)N[C@@H](CCCNC(=N)N)C(=O)N[C@@H](CC(C)C)C(=O)N[C@@H](CO)C(=O)N[C@@H](C)C(=O)N[C@@H](CCCCNC(=O)CC[C@H](NC(=O)CCCCCCCCCCCCCCCCCCC(=O)O)C(=O)O)C(=O)N[C@@H](CC(C)C)C(=O)N[C@@H](Cc1c[nH]cn1)C(=O)N[C@@H](CCC(=O)O)C(=O)N[C@@H](CC(C)C)C(=O)N[C@@H](C)C(=O)N[C@H](C(=O)N[C@@H](CC(C)C)C(=O)N1CCC[C@H]1C(=O)N[C@@H](CCCNC(=N)N)C(=O)N[C@H](C(=O)N[C@@H](CCC(=O)O)C(=O)N[C@H](C(=O)NCC(=O)N[C@@H](CO)C(=O)NCC(=O)N[C@@H](CO)C(=O)N1CCC[C@H]1C(N)=O)[C@@H](C)O)[C@@H](C)O)[C@@H](C)O
notes: mimylin derivative; des1 = residue 1 deleted; also called Ex. #53; 53
B5: [des1, 19K(C20 diacid-gGlu), 30S, 31G]mimylin (peptide)
peptide: ASELSTAALGRLSAELHK([γGlu-C20 diacid])LATLPRTETGSGSP-NH2
modifications: N-terminus assumed
SMILES: CC(C)C[C@H](NC(=O)[C@H](C)NC(=O)[C@H](C)NC(=O)[C@@H](NC(=O)[C@H](CO)NC(=O)[C@H](CC(C)C)NC(=O)[C@H](CCC(=O)O)NC(=O)[C@H](CO)NC(=O)[C@H](C)N)[C@@H](C)O)C(=O)NCC(=O)N[C@@H](CCCNC(=N)N)C(=O)N[C@@H](CC(C)C)C(=O)N[C@@H](CO)C(=O)N[C@@H](C)C(=O)N[C@@H](CCC(=O)O)C(=O)N[C@@H](CC(C)C)C(=O)N[C@@H](Cc1c[nH]cn1)C(=O)N[C@@H](CCCCNC(=O)CC[C@H](NC(=O)CCCCCCCCCCCCCCCCCCC(=O)O)C(=O)O)C(=O)N[C@@H](CC(C)C)C(=O)N[C@@H](C)C(=O)N[C@H](C(=O)N[C@@H](CC(C)C)C(=O)N1CCC[C@H]1C(=O)N[C@@H](CCCNC(=N)N)C(=O)N[C@H](C(=O)N[C@@H](CCC(=O)O)C(=O)N[C@H](C(=O)NCC(=O)N[C@@H](CO)C(=O)NCC(=O)N[C@@H](CO)C(=O)N1CCC[C@H]1C(N)=O)[C@@H](C)O)[C@@H](C)O)[C@@H](C)O
notes: mimylin derivative; des1 = residue 1 deleted; also called Ex. #54; 54
B6: [N-terminal(C18 diacid-gGlu), des1, 6T, 9V, 14T, 21E, 30T, 31G, 32T]mimylin (peptide)
peptide: {C18 diacid-γGlu}-ASELTTAVLGRLTAELHELETLPRTETGTGTP-NH2
SMILES: CC(C)C[C@H](NC(=O)[C@H](CCC(=O)O)NC(=O)[C@H](C)NC(=O)[C@@H](NC(=O)[C@H](CC(C)C)NC(=O)[C@H](CCCNC(=N)N)NC(=O)CNC(=O)[C@H](CC(C)C)NC(=O)[C@@H](NC(=O)[C@H](C)NC(=O)[C@@H](NC(=O)[C@@H](NC(=O)[C@H](CC(C)C)NC(=O)[C@H](CCC(=O)O)NC(=O)[C@H](CO)NC(=O)[C@H](C)NC(=O)CC[C@H](NC(=O)CCCCCCCCCCCCCCCCC(=O)O)C(=O)O)[C@@H](C)O)[C@@H](C)O)C(C)C)[C@@H](C)O)C(=O)N[C@@H](Cc1c[nH]cn1)C(=O)N[C@@H](CCC(=O)O)C(=O)N[C@@H](CC(C)C)C(=O)N[C@@H](CCC(=O)O)C(=O)N[C@H](C(=O)N[C@@H](CC(C)C)C(=O)N1CCC[C@H]1C(=O)N[C@@H](CCCNC(=N)N)C(=O)N[C@H](C(=O)N[C@@H](CCC(=O)O)C(=O)N[C@H](C(=O)NCC(=O)N[C@H](C(=O)NCC(=O)N[C@H](C(=O)N1CCC[C@H]1C(N)=O)[C@@H](C)O)[C@@H](C)O)[C@@H](C)O)[C@@H](C)O)[C@@H](C)O
notes: as for B2

molecular target: T1, human calcitonin receptor (human, UniProt P30988 25-474); experiment: SPA competition vs 125I-calcitonin, membranes with human CTR (Assay VII)
T1 construct: whole, on cells; Assay VII: membranes on SPA beads; also called hCT-R; hCTR
T1 sequence (looked up): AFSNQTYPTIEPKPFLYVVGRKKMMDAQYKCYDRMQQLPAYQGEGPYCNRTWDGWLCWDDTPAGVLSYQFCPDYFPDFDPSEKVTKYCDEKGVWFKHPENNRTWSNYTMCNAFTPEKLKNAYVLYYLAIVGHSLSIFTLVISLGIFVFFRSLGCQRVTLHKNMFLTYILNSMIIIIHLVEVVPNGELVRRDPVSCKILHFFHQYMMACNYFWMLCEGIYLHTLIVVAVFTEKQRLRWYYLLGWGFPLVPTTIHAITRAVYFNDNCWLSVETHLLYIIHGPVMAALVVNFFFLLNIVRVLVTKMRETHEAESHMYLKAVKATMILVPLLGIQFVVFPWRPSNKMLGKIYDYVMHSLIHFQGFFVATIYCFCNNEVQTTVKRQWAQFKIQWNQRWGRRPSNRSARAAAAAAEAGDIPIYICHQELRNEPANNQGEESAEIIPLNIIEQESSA
Experimental: The binding assay was performed using scintillation proximity assay (SPA) beads (RPNQ0001) from PerkinElmer® and cell membranes prepared from a BHK tk'ts 13 cell line was stably transfected with the human calcitonin receptor and a CRE-responsive luciferase reporter gene. Membranes were prepared in the following way; the cells were rinsed with PBS and incubated with Versene for approximately 5 min before harvesting. The cells were flushed with PBS and the cell-suspension was centrifuged for 5 min at 1000 rpm.
(§1) EDTA (pH 7.4, buffer 2). The resulting pellet was resuspended in buffer 2 and protein concentration was tested (BCA protein Assay, Pierce). The homogenate was kept cold during the whole procedure. The membranes were kept at −80° C. until use. Assay was performed in a 384 well Optiplate (PerkinElmer®) in a total volume of 40 ul. Membranes were mixed with SPA beads. Final concentration of membranes 35 ng/μL final and Final concentration of SPA beads was 0.05 mg/well. Test-compounds were dissolved in DMSO and further diluted in assay buffer (50 mM Hepes, pH 7.4, 1 mM CaCl2, 5 mM MgCl2, 0.1% OA and 0.02% Tween20). […] Samples were analyzed on TopCounter™ (Packard). The IC₅₀ was calculated using (one site binding competition analysis) GraphPad Prism5 as a measure of receptor affinity.

Row | Binder | IC50
1 | B1 | 0.091 nM
2 | B2 | 0.193 nM
3 | B3 | 0.057 nM
4 | B4 | 0.215 nM
5 | B5 | 0.085 nM
6 | B6 | 0.222 nM

molecular target: T2, human amylin receptor (amylin 3(a) receptor: human calcitonin receptor with RAMP-3) (human, UniProt P30988 25-474; O60896 24-148, limits assumed); experiment: SPA competition vs 125I-rat amylin, membranes with human CTR + RAMP-3 (Assay V)
T2 construct: whole, on cells; Assay V: membranes of the Amylin 3(a)/CRE-luc BHK cells on SPA beads; also called hAmylin-R
T2 sequence (looked up) 1: T1 sequence (looked up)
T2 sequence (looked up) 2: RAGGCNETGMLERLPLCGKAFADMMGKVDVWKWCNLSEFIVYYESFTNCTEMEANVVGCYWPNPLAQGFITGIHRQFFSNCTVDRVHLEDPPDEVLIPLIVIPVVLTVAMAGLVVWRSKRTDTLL
Experimental: as §1, with “The binding assay was performed using scintillation proximity assay (SPA) beads (RPNQ0001) from PerkinElmer and cell membranes from the Amylin 3(a)/CRE-luc cells (as described in Assay (II)) were used. Membranes were prepared in the following way; the cells were rinsed with PBS and incubated with Versene for approximately 5 min before harvesting. The cells were flushed with PBS and the cell-suspension was centrifuged for 5 min at 1000 rpm. […] The” for “EDTA (pH 7.4, buffer 2). The”, “use. The assay” for “use. Assay”, “Optiplate (PerkinElmer)” for “Optiplate (PerkinElmer®)”, “and” for “and Final concentration of”

Row | Binder | IC50
7 | B1 | 0.166 nM
8 | B2 | 0.225 nM
9 | B3 | 0.122 nM
10 | B4 | 0.114 nM
11 | B5 | 0.442 nM
12 | B6 | 0.309 nM
